The target in test [1] is Azotobacter vinelandii ^NifIscA (Azotobacter vinelandii). Put plainly: SEC.
Test [2] shares this target. Nature of the test: SEC. This is another data set of the same source. For orientation: SEC sorts molecules by how far they enter the pores of the column.

Where two headings read alike, the source gives them in different places.

The term stoichiometry N denotes a count of units in the complex or per binding partner. Regarding “Azotobacter vinelandii ^NifIscA (natural protein)”, the stoichiometry N in test [1] and in test [2] was 2 in each case.

The values are drawn from publication PMC3556364.
